{
  "source": "paper PMC9502102",
  "about": "“Thrombin Determination Using Graphene Oxide Sensors with Co-Assisted Amplification”",
  "molecular_target": "thrombin (UniProt P00734;P00734 328-363;364-622)",
  "test": "fluorescence recovery (FAM-TBA released from GO/capture DNA); FAM-TBA with capture DNA on PEG-blocked GO; thrombin 0.0025-15 nM; sensor LOD is not a Kd; GO 5 ug/mL, 10 nM FAM-DNA, 30 min incubation (covalent sensor); PBS listed in materials, PBS vs water compared in Fig. S6; pH, salt and temperature not in the m",
  "data": [
    {"binder": "AAAAGTCCGTGGTAGGGCAGGTTGGGGTGACT (ssDNA)", "note": "[Thrombin binding aptamer (TBA)]", "values": [
      {"measurement": "binding result", "result": "binds"}
    ]}
  ]
}
